System: T1, AbrB (Bacillus thuringiensis (HD73?)), ORF:5acdf31f
T1 sequence: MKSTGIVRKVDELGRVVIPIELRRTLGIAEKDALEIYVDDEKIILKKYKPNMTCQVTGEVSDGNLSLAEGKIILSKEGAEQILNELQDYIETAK
Assay: EMSA

CATCCGTTAAAGGAAGCATGAATTAGTAATGAATTTGCAATTTCGATAAAAGTTTGTAATATTTCATTTTATGGACATACTTCATCTAGATCACTTTGTAATAGAATATTTCCTTTTATATACAATTAAACCACATTTATCCTTCGTGAAATGTTTATATATTAAATAATATAAAAAAATATAGGGTGTTATAATTAATTCGAAAACGTTTACAAAAAGAATGATGGAGGGATAATT (double strand) [Psip1Ab1-S (-201 to +36)]
binding: binds

Source: publication PMC8552724
